# Measured values from article doi:10.1101/2020.06.06.138305.
# Biological target: His-tagged encapsulin from Thermotoga maritima (Thermotoga maritima)
# Test: co-purification
substance,measurement,value
ESig-tagged mini-Singlet Oxygen Generator (miniSOG),stoichiometry N (mSOG molecules per nanocompartment),7
